Drawing on patent EP4273162A1 (Numab Therapeutics AG, dated 2023), this text covers Kd, No of positive serum samples above 30 % CCP (positive sera of 20) and No of screening positive serum samples above 30 % Inhibition (positive sera of 20) for two molecules.

In experiment [1] the target is T1, human α-Mesothelin (Acro Biosystems; MSN_H5223) (human, UniProt Q13421 296-580, limits assumed).
T1 construct: also called Human MSLN; MSLN
The experiment is described as follows: SPR, MSLN immobilised, scFv as analyte, 1:1 Langmuir fit. A general note: Surface plasmon resonance follows binding to a sensor surface in real time, without labels.

The target of experiment [2] is pre-existing anti-drug antibodies (ADAs) in human sera. The experiment is described as follows: ELISA, scFv coated, 5% human serum unspiked/spiked, anti-human IgG-HRP.
Experiment [3] addresses T2, human α-PD-L1 Fc (Sino Biological, 10084-H02H, LC11NO2402) (human, UniProt Q9NZQ7 19-239).
T2 construct: also called Human PD-L1
The experiment is described as follows: SPR, PD-L1 Fc immobilised, scFv as analyte, 1:1 Langmuir fit.

T1 sequence (Q13421 other isoform, or with tags, fused parts or gaps limits assumed): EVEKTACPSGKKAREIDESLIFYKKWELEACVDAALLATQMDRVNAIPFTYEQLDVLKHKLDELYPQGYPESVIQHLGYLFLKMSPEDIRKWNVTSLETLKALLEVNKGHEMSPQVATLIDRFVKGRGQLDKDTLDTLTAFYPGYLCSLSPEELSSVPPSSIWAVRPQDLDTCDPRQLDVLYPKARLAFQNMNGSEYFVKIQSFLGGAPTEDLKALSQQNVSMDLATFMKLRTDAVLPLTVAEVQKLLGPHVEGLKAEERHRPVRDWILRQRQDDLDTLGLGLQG
T2 sequence (Q9NZQ7 19-239 limits assumed): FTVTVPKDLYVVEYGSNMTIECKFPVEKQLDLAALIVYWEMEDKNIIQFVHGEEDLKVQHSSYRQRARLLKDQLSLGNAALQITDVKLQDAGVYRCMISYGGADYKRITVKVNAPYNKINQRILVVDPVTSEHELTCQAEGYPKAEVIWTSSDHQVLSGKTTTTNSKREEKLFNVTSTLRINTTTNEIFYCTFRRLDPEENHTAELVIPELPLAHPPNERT

B1: scFv 54-21-H03-sc01 (PRO1922) (scFv)
scFv: DIQMTQSPSSLSASVGDRVTITCQASESIYSSLAWYQQKPGKAPKLLIYLASTLASGVPSRFSGSGSGTDFTLTISSLQPEDFATYYCQSTDYTTSTHRNSFGTGTKVTVLGGGGGSGGGGSGGGGSGGGGSEVQLVESGGGLVQPGGSLRLSCAASGFSFSTTYYMCWVRQAPGKGLEWIGCTNTASSVRTYYATWAKGRFTISRDNSKNTVYLQMNSLRAEDTAVYYCARDMGFADYALNLWGQGTLVTVSS
notes: also called PRO1992; PRO1922 wt
Turning to B1, the Kd (commonly the free concentration of one partner at which half of the binding sites on the other are occupied at equilibrium, for simple one-to-one binding) in experiment [1] turned out to be 1.8 nM. For the same molecule, in experiment [2], the No of positive serum samples above 30 % CCP (positive sera of 20) stood at 10 and the No of screening positive serum samples above 30 % Inhibition (positive sera of 20) came out at 16.

B2: scFv 37-20-B03-sc09.1 PRO2230 (scFv)
scFv: DIQMTQSPASLSASVGDRVTITCQASQSIGTYLAWYQQKPGKPPKLLIYRAFILASGVPSRFSGSGSGTDFTLTISSLQPEDFATYYCQSNFYSDSTTIGPNAFGTGTKVTVLGGGGGSGGGGSGGGGSGGGGSEVQLVESGGGLVQPGGSLRLSCAASGFSFNSDYWIYWVRQAPGKGLEWIASIYGGSSGNTQYASWAQGRFTISRDNSKNTVYLQMNSLRAEDTAVYFCARGYVDYGGATDLWGQGTLVTVSS
notes: also called PRO2330; PRO2230 wt
In experiment [3], B2 showed a dissociation constant Kd of 1.5 nM. Further, in experiment [2], the No of positive serum samples above 30 % CCP (positive sera of 20) turned out to be 6 and the No of screening positive serum samples above 30 % Inhibition (positive sera of 20) turned out to be 18.
